Source: patent publication US7005415B1

Molecular target: FGF-1a produced in E. coli (human) (UniProt P05230)
Details: scale: % band intensity remaining after 0.01% trypsin

intensity of the remaining band after trypsin treatment (SDS-denatured electrophoresis, blot): 6
Substance: trypsin (enzyme)
